# Source: article PMC4285774
# Read-outs that look alike come from different tables or passages of the source.
# T1: Prp2 (UniProt P20095 1-876)
# T1 sequence: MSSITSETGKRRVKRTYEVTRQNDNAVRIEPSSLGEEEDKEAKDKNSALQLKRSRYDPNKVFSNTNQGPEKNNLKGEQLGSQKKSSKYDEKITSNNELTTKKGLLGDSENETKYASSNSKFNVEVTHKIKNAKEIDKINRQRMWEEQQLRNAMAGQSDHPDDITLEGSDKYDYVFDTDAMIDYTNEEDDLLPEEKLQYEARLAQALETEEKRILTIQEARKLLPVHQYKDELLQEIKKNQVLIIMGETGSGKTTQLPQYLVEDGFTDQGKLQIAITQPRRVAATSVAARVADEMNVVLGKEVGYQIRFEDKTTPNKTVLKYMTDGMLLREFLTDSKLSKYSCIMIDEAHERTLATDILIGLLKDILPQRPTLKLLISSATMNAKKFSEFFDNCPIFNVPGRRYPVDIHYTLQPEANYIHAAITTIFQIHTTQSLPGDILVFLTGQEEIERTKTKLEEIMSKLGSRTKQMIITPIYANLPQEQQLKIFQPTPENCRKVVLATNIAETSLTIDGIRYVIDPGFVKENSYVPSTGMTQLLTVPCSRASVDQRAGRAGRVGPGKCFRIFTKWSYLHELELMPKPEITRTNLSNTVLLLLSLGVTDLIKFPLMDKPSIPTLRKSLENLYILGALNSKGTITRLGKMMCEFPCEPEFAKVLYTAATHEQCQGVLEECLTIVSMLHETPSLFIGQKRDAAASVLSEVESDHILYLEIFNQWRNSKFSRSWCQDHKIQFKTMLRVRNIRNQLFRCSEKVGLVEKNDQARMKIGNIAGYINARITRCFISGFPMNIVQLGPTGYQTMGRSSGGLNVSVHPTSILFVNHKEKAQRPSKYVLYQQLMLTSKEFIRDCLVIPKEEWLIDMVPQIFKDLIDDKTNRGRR
# T2: Prp2;Spp2 (Saccharomyces cerevisiae?;Saccharomyces …, UniProt P20095;Q02521 1-876;36-185, |)
# T2 sequence 1: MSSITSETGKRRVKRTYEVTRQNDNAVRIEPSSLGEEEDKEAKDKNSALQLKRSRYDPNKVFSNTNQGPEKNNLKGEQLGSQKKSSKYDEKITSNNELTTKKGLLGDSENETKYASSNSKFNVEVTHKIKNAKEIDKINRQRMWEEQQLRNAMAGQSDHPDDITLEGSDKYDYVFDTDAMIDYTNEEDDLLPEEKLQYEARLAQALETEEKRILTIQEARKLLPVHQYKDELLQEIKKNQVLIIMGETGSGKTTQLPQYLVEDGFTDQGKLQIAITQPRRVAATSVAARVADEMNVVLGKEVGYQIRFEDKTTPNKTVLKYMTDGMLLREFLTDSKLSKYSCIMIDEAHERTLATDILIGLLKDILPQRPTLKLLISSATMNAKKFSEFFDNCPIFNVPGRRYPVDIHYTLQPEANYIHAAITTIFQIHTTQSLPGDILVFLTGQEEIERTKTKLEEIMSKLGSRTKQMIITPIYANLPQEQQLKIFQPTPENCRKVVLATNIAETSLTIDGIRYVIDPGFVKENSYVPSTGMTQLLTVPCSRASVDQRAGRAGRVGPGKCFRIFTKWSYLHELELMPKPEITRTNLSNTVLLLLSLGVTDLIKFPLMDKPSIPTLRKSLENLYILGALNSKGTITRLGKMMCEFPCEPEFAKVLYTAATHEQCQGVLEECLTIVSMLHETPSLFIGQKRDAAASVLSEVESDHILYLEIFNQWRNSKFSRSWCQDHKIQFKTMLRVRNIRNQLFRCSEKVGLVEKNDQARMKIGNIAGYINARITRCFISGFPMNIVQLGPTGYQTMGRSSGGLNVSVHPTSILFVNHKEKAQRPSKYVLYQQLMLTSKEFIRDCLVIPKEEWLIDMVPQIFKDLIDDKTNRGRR
# T2 sequence 2: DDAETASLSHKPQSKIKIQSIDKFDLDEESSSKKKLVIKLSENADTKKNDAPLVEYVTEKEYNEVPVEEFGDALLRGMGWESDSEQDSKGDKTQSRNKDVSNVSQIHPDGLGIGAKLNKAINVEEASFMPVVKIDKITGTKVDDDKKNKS
# T3: Spp2 (UniProt Q02521 36-185)
# T3 sequence: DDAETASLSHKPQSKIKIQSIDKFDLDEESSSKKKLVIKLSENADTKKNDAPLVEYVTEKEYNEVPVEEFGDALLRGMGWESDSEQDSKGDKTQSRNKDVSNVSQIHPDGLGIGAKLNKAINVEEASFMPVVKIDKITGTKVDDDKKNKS
# Tests used:
# Experiment in all cases: fluorescence anisotropy
# [1] = molecular target: T1, Prp2
# [2] = molecular target: T2, Prp2;Spp2
# [3] = molecular target: T3, Spp2
# [4] = molecular target: T1, Prp2; remark: listed apart in the source
binder,measurement,setting,value
GGCCGCGAGAAAAAAAAAAAAAAA (ssRNA) [24-nt ssRNA],Kd,[1],53 ± 5 nM
same,binding result,[2],binds
same,binding result,[3],no binding
same,Kd,[4],70 ± 11 nM
